Assay results published in the supplement of paper PMC7877785.
± gives the uncertainty stated by the source.

Assay: self-splicing fitness, log relative to wild type (ln ratio); higher = more splicing; Tetrahymena group I intron in knt gene, E. coli kanamycin selection, DiMSum; sequences stand for … in CUCUCU…GGAGGGAAAAGUUAUCAGGCAUGCACCUGGUAGCUAGUCUUUAAACCAAUAGAUUGCAUCGGUUUAAAAGGCAAGACCGUCAAAUUGCGGGAAAGGGGUCAACAGCCGUUCAGUACCAAGUCUCAGGGGAAACUUUGAGAUGGCCUUGCAAAGGGUAUGGUAAUAAGCUGACGGACAUGGUCCUAACCACGCAGCCAAGUCCUAAGUCAACAGAUCUUCUGUUGAUAUGGAUGCAGUUCACAGACUAAAUGUCGGUCGGGGAAGAUGUAUUCUUCUCAUAAGAUAUAGUCGGACCUCUCCUUAAUGGGAGCUAGCGGAUGAAGUGAUGCAACACUGGAGCCGCUGGGAACUAAUUUGUAUGCGAAAGUAUAUUGAUUAGUUUUGGAGUACUCGUGGUCG
How it was run: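 Library with all eight P1ex-region intron nucleotides randomised, intron inside the knt kanamycin-resistance gene on pET-22b(+), in E. coli BL21(DE3). Cells grew overnight at 37°C or 30°C on LB agar with or without 25 μg/mL kanamycin (plus 100 μg/mL carbenicillin, 50 μM IPTG, 0.2% rhamnose), in six replicate transformations. Pooled colonies were amplicon-sequenced on Illumina HiSeq 2500. DiMSum fitness is the error-weighted combination of wild-type-normalised replicate fold changes, kanamycin versus none.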

| Sequence | self-splicing fitness (ln) (30 °C) | self-splicing fitness (ln) (37 °C) |
| --- | --- | --- |
| CGGCAGCAAUAUUACGCUGU | -3.8 ± 0.14 | -2.29 ± 0.15 |
| CGGCAGCAAUAUUACGGAUU | -3.9 ± 0.31 | -2.24 ± 0.21 |
| CGGCAGCAAUAUUACGGCGA | -3.18 ± 0.16 | -2.72 ± 0.18 |
| CGGCAGCAAUAUUACGGCUU | -0.457 ± 0.065 | 0.278 ± 0.095 |
| CGGCAGCAAUAUUACGGUUC | -2.16 ± 0.093 | -0.799 ± 0.098 |
| CGGCAGCAAUAUUACGUAAC | -1.24 ± 0.21 | – |
| CGGCAGCAAUAUUACGUACU | -0.872 ± 0.052 | -0.714 ± 0.06 |
| CGGCAGCAAUAUUACGUUGA | -2.63 ± 0.19 | -1.8 ± 0.16 |
| CGGCAGCAAUAUUACGUUGC | -3.03 ± 0.27 | -2.57 ± 0.33 |
| CGGGAGCAAUAUUACGACCU | -0.87 ± 0.14 | -0.864 ± 0.18 |
| CGGGAGCAAUAUUACGCAGC | -3.21 ± 0.24 | -2.72 ± 0.43 |
| CGGGAGCAAUAUUACGCGCC | – | -1.51 ± 0.43 |
| CGGGAGCAAUAUUACGGAGC | -2.32 ± 0.37 | -0.632 ± 0.25 |
| CGGGAGCAAUAUUACGGCUA | -2.44 ± 0.39 | – |
| CGGGAGCAAUAUUACGGGAC | -3.57 ± 0.3 | -3.25 ± 0.4 |
| CGGGAGCAAUAUUACGGGCA | – | -1.14 ± 0.42 |
| CGGGAGCAAUAUUACGGGGU | -2.03 ± 0.42 | – |
| CGGGAGCAAUAUUACGGGUG | -3.26 ± 0.28 | -2.07 ± 0.28 |
| CGGGAGCAAUAUUACGGUAC | -2.19 ± 0.38 | – |
| CGGGAGCAAUAUUACGGUUU | – | -1.19 ± 0.32 |
| CGGGAGCAAUAUUACGUAAA | -2.94 ± 0.34 | – |
| CGGGAGCAAUAUUACGUACU | – | -1.86 ± 0.38 |
| CGGGAGCAAUAUUACGUCAU | -3.09 ± 0.49 | – |
| CGGGAGCAAUAUUACGUCCG | -1.07 ± 0.43 | – |
| CGGGAGCAAUAUUACGUUCA | -3.69 ± 0.25 | -2.53 ± 0.26 |
| CGGGAGCAAUAUUACGUUUC | -3.92 ± 0.46 | – |
| CGGUAGCAAUAUUACGAAGA | -2.99 ± 0.42 | -2.32 ± 0.29 |
| CGGUAGCAAUAUUACGAUUC | -2.84 ± 0.17 | -1.69 ± 0.13 |

| Sequence | self-splicing fitness (ln) (30 °C) | self-splicing fitness (ln) (37 °C) |
| --- | --- | --- |
| CGGUAGCAAUAUUACGCAGG | -1.26 ± 0.12 | -1.44 ± 0.18 |
| CGGUAGCAAUAUUACGCCAU | -1.58 ± 0.32 | -2.46 ± 0.39 |
| CGGUAGCAAUAUUACGCCCA | 0.153 ± 0.1 | 0.145 ± 0.17 |
| CGGUAGCAAUAUUACGCGCU | -3.13 ± 0.39 | – |
| CGGUAGCAAUAUUACGCGUU | -3.55 ± 0.31 | -2.13 ± 0.21 |
| CGGUAGCAAUAUUACGCUCG | – | -2.91 ± 0.43 |
| CGGUAGCAAUAUUACGGCCG | -3.76 ± 0.24 | -0.985 ± 0.2 |
| CGGUAGCAAUAUUACGGCUU | -0.935 ± 0.087 | 0.239 ± 0.12 |
| CGGUAGCAAUAUUACGGGCG | -0.838 ± 0.12 | 0.0595 ± 0.14 |
| CGGUAGCAAUAUUACGGGUU | -3.51 ± 0.21 | -3.67 ± 0.22 |
| CGGUAGCAAUAUUACGUAAU | -3.97 ± 0.47 | – |
| CGGUAGCAAUAUUACGUCGC | -3.35 ± 0.27 | -2.14 ± 0.22 |
| CGGUAGCAAUAUUACGUCUG | -0.631 ± 0.086 | -0.338 ± 0.11 |
| CGGUAGCAAUAUUACGUGAA | -2.67 ± 0.18 | -1.52 ± 0.19 |
| CGGUAGCAAUAUUACGUUCU | -0.482 ± 0.087 | -0.439 ± 0.1 |
| CGGUAGCAAUAUUACGUUGU | -4.62 ± 0.27 | -2.55 ± 0.15 |
| CGGUAGCAAUAUUACGUUUC | -2.48 ± 0.32 | – |
| CGUAAGCAAUAUUACGAAGU | -3.81 ± 0.18 | -2.51 ± 0.17 |
| CGUAAGCAAUAUUACGACCA | -2.11 ± 0.35 | -0.83 ± 0.25 |
| CGUAAGCAAUAUUACGACCU | -1.97 ± 0.17 | -0.549 ± 0.16 |
| CGUAAGCAAUAUUACGACGA | -1.28 ± 0.21 | -1.69 ± 0.24 |
| CGUAAGCAAUAUUACGAGUG | -2.51 ± 0.13 | -0.853 ± 0.1 |
| CGUAAGCAAUAUUACGAUAG | -1.72 ± 0.093 | -0.661 ± 0.11 |
| CGUAAGCAAUAUUACGAUCU | -2.36 ± 0.15 | -0.243 ± 0.11 |
| CGUAAGCAAUAUUACGCAAA | – | -1.48 ± 0.34 |
| CGUAAGCAAUAUUACGCCUA | – | -2.18 ± 0.27 |
| CGUAAGCAAUAUUACGCCUG | -1.21 ± 0.11 | -0.643 ± 0.12 |
